# From the RNAGym collection of RNA variant scans (doi:10.7554/elife.90254)
# B1: OR4K15 (parent)
# chain: GUUAACGGUCAUAGGCCAUGGAAACUAGGAGCACCAUUUCGCUGCCAGUGAAGAAAUGAACAAAGAAAAUCUGGGCCAGGCAGGCAUCAAAAGAAAUAGUCUUGCGCUCAACCAGAAAGUCUGUAAUCAUUUUAAGGGUA
# Variants of: B1
# Assay: self-cleavage, relative activity (ratio to wild type); higher = more cleavage; in vitro, sequencing; the parent is a self-cleaving ribozyme
row,Variant,self-cleavage
1,GUUAACGGUCAUAGGCCAUGGAAACUAGGAGCACCAUUUCGCUGCCAGUGAAGAAAUGAACAAAGAAAAACUGGGCCAGGCAGGCAUCAAAAGAGAUAGUCUUGCGCUCAACCAGAAAGUCUGUAAUCAUUUUAAGGGUA,1.98
2,GUUAACGGUCAUAGGCCAUGGAAACUAGGAGCACCAUUUCGCUGUCAGUGAAGAAAUGAACAAAGAAAAUCUGGGCCAGGCAGGCAUCAAAAGAAAUAGUCUUGCGCUCAACCAGAAAGUCUGUAAUCAUUUUAAGGGUG,1.42
3,GUUAACGGUCAUAGGCCAUGGAAACUAGGUGCACCAUUUCGCUGCCAGUGAAGCAAUGAACAAAGAAAAUCUGGGCCAGGCAGGCAUCAAAAGAAAUAGUCUUGCGCUCAACCAGAAAGUCUGUAAUCAUUUUAAGGGUA,1.77
4,GUUAACGGUCAUAGGCCAUGGAAACUAGGAGCACCAUUUCGCUGCCAGUGCAGAAAUGAACAAAGAAAAUCUGGGCCAGGCAGGCAUCAAAAGAAAUAGUCUUGCGCUCAACCAGAAAGUCUGUAAUCAUUUUAAGGGUA,1.43
5,GUUAACGGUCUUAGGCCAUGGAAACUAGGAGCACCAUUUCGCUGCCAGUGAAGAAAUGAACAAAGAAAAUCUGGGCCAGGCAGGCAUCAAAAGAAAUAGUCUUGCGCUCAACCAGCAAGUCUGUAAUCAUUUUAAGGGUA,0.23
6,GUUAACGGUCAUAGGCCAUGGAAACUAGGAGCACCAUUUCGCUGCCAGUGAAGAAAUGAACAAAGAAAAUCUGGGCCAGGCAGGCAUCAAAAGAAAUAGUCUUGCGCGCAACCAGAAAGUCUGUAAUCAUUUUAAGGGUA,0.02
7,GUUAACGGUCAUAGGCCAUGGAAACUAGGAGCACCAUUUCGCUGCCAGUGAAGAAAUGAACAAAGAAAAUCUGCGCCAGGCAGGCAUCAAAAGAAAUAGUCUUGCGCUCAACCAGAAAGUCUGUAACCAUUUUAAGGGUA,0.13
8,GUUAACGGUCAUAGGCCAUGGAAACUAGGAGCACCAUUUCGCUGCUAGUGAAGAAAUGAACAAAGAAAAUCUGGGCCAGGCAGGCAUCGAAAGAAAUAGUCUUGCGCUCAACCAGAAAGUCUGUAAUCAUUUUAAGGGUA,2.15
9,GUUAACGGUCAUAGGCCAUGGAAACUAGGAGCACUAUUUCGCUGCCAGUGAAGAAAUGAACAAAGAAAAUCUGGGCCAGGCAGGCAUCAAAAGAAGUAGUCUUGCGCUCAACCAGAAAGUCUGUAAUCAUUUUAAGGGUA,0.88
10,GUUAACGGUCAUAGGCCAUGGAAACUAGGAGCACCAUUUCGCUGCCAGUGAAGAAAUGAACAAAGAAAAUCAGGGCCAGGCAGGCAUCAAAAGAAAUAGUCCUGCGCUCAACCAGAAAGUCUGUAAUCAUUUUAAGGGUA,0.58
11,GUUAACGGUCAUAGGCCAUGGAAACUAGGAGCACCAUUCCGCUGCCAAUGAAGAAAUGAACAAAGAAAAUCUGGGCCAGGCAGGCAUCAAAAGAAAUAGUCUUGCGCUCAACCAGAAAGUCUGUAAUCAUUUUAAGGGUA,1.14
12,GUUAACGGUCAUAGGCCAUGGAAACUAGGAGCACCAUUUCGCUGCCAGUGAAGCAAUGAUCAAAGAAAAUCUGGGCCAGGCAGGCAUCAAAAGAAAUAGUCUUGCGCUCAACCAGAAAGUCUGUAAUCAUUUUAAGGGUA,1.33
13,GUUAACGGUCAUAGGCCAUGGGAACUAGGAGCACCAUUUCGCUGCCAGUGAAGAAAUGAACAAAGAAAAUCUGGGCCAGGCAGGCAUCAAAAGAAAUAGACUUGCGCUCAACCAGAAAGUCUGUAAUCAUUUUAAGGGUA,0.54
14,GUUAACGGUCAUAGGCCAUGGAAACUAGGAGCACCAUUUCGCUGCCAGUGAAGAAAUGAACAAAGAAAAUCUGGGCCAGGCAGGCAUCAAAAGAAAUAGUCUUGCGCCCAACCAGAUAGUCUGUAAUCAUUUUAAGGGUA,0.01
15,GUUAACGGUCAUAGGCCAUGGAAACUAGGAGCACCAUUUCGCUGCCAGUGAAGAGAUGUACAAAGAAAAUCUGGGCCAGGCAGGCAUCAAAAGAAAUAGUCUUGCGCUCAACCAGAAAGUCUGUAAUCAUUUUAAGGGUA,1.13
16,GUUAACGGUCAUAGGCCAUGGAAACUAAGAGCACCAUUUCGCUGCCAGUGAAGAAAUGAACAAAGAAAAUCUGGGCCAGGCAGGCAUCAAAAGAAAUGGUCUUGCGCUCAACCAGAAAGUCUGUAAUCAUUUUAAGGGUA,0.39
17,GUUAACGGUCAUAGGCCAUGGAAACUAGAAGCACCAUUUCGCUGCCAGUGAAGAAAUGAACAAAGAAAAUCUGGGCCGGGCAGGCAUCAAAAGAAAUAGUCUUGCGCUCAACCAGAAAGUCUGUAAUCAUUUUAAGGGUA,0.28
18,GUUAACGGUCAUAGGCCAUGGAAACUAGGAGCACCAUUUCGCUGCCAGUGAAGAAACGAACAAAGAAAAUCUGGGCCAGGCAGGCAUCAAAAGAAAUAGUCUUGCGCUCAACCAGAAAGCCUGUAAUCAUUUUAAGGGUA,0.41
19,GUUAACGGUCAUAGGCCAUGGAAACUAGGGGCACCAUUUCGCUGCCAGUGAAGAAAUGAACAAAGUAAAUCUGGGCCAGGCAGGCAUCAAAAGAAAUAGUCUUGCGCUCAACCAGAAAGUCUGUAAUCAUUUUAAGGGUA,1.22
20,GUUAACGGUCAUAGGCCAUGGAAACUAGGAGCACCAUUUCGCUGCCAGAGAAGAAAUGAACAGAGAAAAUCUGGGCCAGGCAGGCAUCAAAAGAAAUAGUCUUGCGCUCAACCAGAAAGUCUGUAAUCAUUUUAAGGGUA,1.46
21,GUUAACGGUCAUAGGCCAUGGAAACUAGGUGCACCAUUUCGCUGCCAGUGAAGAAAUGAACAAAGAAAACCUGGGCCAGGCAGGCAUCAAAAGAAAUAGUCUUGCGCUCAACCAGAAAGUCUGUAAUCAUUUUAAGGGUA,0.71

row,Variant,self-cleavage
1,GUUAACGGUCAUAGGCCAUGGAAACUAGGAGCACCAUUUCGCUGCCAGUGAAGGAAUGAACAAAGAAAAUCUGGGCCAGGCAGGCAUCAAAGGAAAUAGUCUUGCGCUCAACCAGAAAGUCUGUAAUCAUUUUAAGGGUA,1.37
2,GAUAACGGUCAUAGGCCAUGGAAACUAGGAGCACCAUUUCGCUGCCAGUGAAGAAAUGAACAAAGAAAAUCUGGGCCAGGCAGGCAUCAAAAGAAAUAGUCUUGCGCUCAACCAGAAAGUCUGUAGUCAUUUUAAGGGUA,0.81
3,GUUAACGGUCAUAGGCCAUGGAAACUAGGAGCACCAUCUCGCUGCCAGUGAAGAAAUGAACAAAGAAAAUCUGGGCCAGGCAGGCAUCAAAGGAAAUAGUCUUGCGCUCAACCAGAAAGUCUGUAAUCAUUUUAAGGGUA,1.97
4,GUUAACGGUCAUAGGCCAUGGAAACUAGGAGCACCAUUUCGCUGCCAGUGAAGAGAUGAACAAAGAAAAUCUGGGCCAGGCAGGCAUCAAAAGAAAUAGUCUUGCGCUCAACCAGAAAGUCUGUAAUCAAUUUAAGGGUA,0.52
5,GUUAACGGUCAUAGGCCAUGGAAACUAGGAGCACCAUUUCGCUGCCAGUGAAGAAAUGAACAAAGAAAAUCUGGGCUAGGCAGGCAUCAAAAGAAAUAGCCUUGCGCUCAACCAGAAAGUCUGUAAUCAUUUUAAGGGUA,2.13
6,GUUAACGGUCAUAGGCCAUGGAAACUAGGAGCACCAUUUCGCUGCCAGUGAAGAAAUGAACAAAGAAAAUCUGGGCCAGGCAGGCAUCGAAAGAAAUAGUCUUGCGCUCAACCAGAAAGUCUGUAAUCAUUUUAAGGGCA,1.02
7,GUUAACGGUCAUAGGCCAUGGAAACUAGGAGCACCAUUUCGCUGCCAGUGAAGAAAUGAACAAAGAAAAUCUGGGCCAGGCAGGCAUCAAAAGAAAUAGUCUUGCGCUCAACCAGGAAGUCUGUAAUCAUUUUAAGGGUC,0.63
8,GUUAACGGUCAUAGGCCAUGGAAACUAGGAGCACCAUUUCGCUGCCAGUGAAGAAAUGAACAAAGAAAAUCUGGGCCAGGCAGGCAUCAAAAGAAAUAGUCCUGCGCUCAACAAGAAAGUCUGUAAUCAUUUUAAGGGUA,0.28
9,GUUAACGGUCAUAGGCCAUGGAAACUAGGAGCACCAUUUCGCUGCCAGUGAAGAAAUGAGCAAAGAAAAUCUGGGCCAGGCAGGCAUCAAAAGAGAUAGUCUUGCGCUCAACCAGAAAGUCUGUAAUCAUUUUAAGGGUA,1.63
10,GUUAACGGUCAUAGGCCAUGGAAACUAGGAGCACCAUUUCGCUGCCAGUGAAGAAAAGAACAAAGAAAAUCUGGGCCAGGCAGGCAUCAAAAGAAAUAGUCUUGCGCUCAACCAGGAAGUCUGUAAUCAUUUUAAGGGUA,0.94
11,GUUAACGGUCAUAGGCCAUGGAACCUAGGAGCGCCAUUUCGCUGCCAGUGAAGAAAUGAACAAAGAAAAUCUGGGCCAGGCAGGCAUCAAAAGAAAUAGUCUUGCGCUCAACCAGAAAGUCUGUAAUCAUUUUAAGGGUA,1.14
12,GUUAACGGUCAUAGGCCAUGGGAACUAGGAGCGCCAUUUCGCUGCCAGUGAAGAAAUGAACAAAGAAAAUCUGGGCCAGGCAGGCAUCAAAAGAAAUAGUCUUGCGCUCAACCAGAAAGUCUGUAAUCAUUUUAAGGGUA,0.98
13,GUUAACGGUCAUAGGCCAUGGAAACUAGGAGCACCAUUUCGCUGCCAGAGAAGAAAUGAACAAGGAAAAUCUGGGCCAGGCAGGCAUCAAAAGAAAUAGUCUUGCGCUCAACCAGAAAGUCUGUAAUCAUUUUAAGGGUA,1.2
14,GUUAACGGUCAUAGGCCAUGGAAACUAGGAGCACCAUUUCGCUGCCAGUGAAGAAAUGAACAAAGAAAAUCUGGGCCAGGCAGGCAUCAAAAGAAAUGGUCUUGCGCUCAACCAGAAAGUCUGUAAUCAUCUUAAGGGUA,0.49
15,GUUAACGGUCAUAGGCCAUGGAGGCUAGGAGCACCAUUUCGCUGCCAGUGAAGAAAUGAACAAAGAAAAUCUGGGCCAGGCAGGCAUCAAAAGAAAUAGUCUUGCGCUCAACCAGAAAGUCUGUAAUCAUUUUAAGGGUA,1.03
16,GUUAACGGUCAUAGGCCAUGGAAACUAGGAGCACCAUUUCGCUGCCAGUGAAGAAAUGAACAAAGAAAAUCUGGGCCAGGCUGGCAUCAAAAGAAAUAGUCUUGCGCUCAACCAGAGAGUCUGUAAUCAUUUUAAGGGUA,0.28
17,GUUAACGGUCAUAGGCCAUGGAAACUAGGCGCACCAUUUCGCUGCCAGUGAAGAAAUGAACAAAGAAAAUCUGGGCCAGGCAGGCAUCAAAAGAAAUAGUCUGGCGCUCAACCAGAAAGUCUGUAAUCAUUUUAAGGGUA,0.01
18,GUUAACGGUCAUAGGCCAUGGAAACUAGGAGCACCAUUUCGCUGCCAGUGAAGAAAUUAACAAAGAAAAUCUGGGCCAGGCAGGCAUCAAAAGAAAUAGUCUUGCGAUCAACCAGAAAGUCUGUAAUCAUUUUAAGGGUA,0.03
19,GUUAACGGUCAUAGGCCAUGGAAACUAGGCGCACCAUUUCGCUGCCAGUGAAGAAAUGAACAAAGAAGAUCUGGGCCAGGCAGGCAUCAAAAGAAAUAGUCUUGCGCUCAACCAGAAAGUCUGUAAUCAUUUUAAGGGUA,0.67
20,GUUAACGGUCAUAGGCCAUGGAAACUAGGAGCACCAUUUCGCUGCCAGUGAAGAAAUGGACAAAGAAAAUCUGGGCCAGGCAGGCAUCAAAAGAAAUAGUCUUGCGCUCAACCAGAAAGUCUGUAAACAUUUUAAGGGUA,1.82
